Experimental data from article PMC6315623.

B1: unnamed (parent)
chain 1: PHLSRQPEQPEQRALGPVSMPNLVPEVIDLTCHEAGFPPSDDEDEEG
chain 2: MPQPIEKVSVSTQTKKLSASSPRMLHRSTQTTNDGVCQSMCHDKYTKIFNDFKDRMKSDHKRETERVVREALEKLRSEMEEEKRQAVNKAVANMQGEMDRKCKQVKEKCKEEFVEEIKKLATQHKQLISQTKKKQWCYNCEEEAMYHCCWNTSYCSIKCQQEHWHAEHKRTCRRKR

Variants of: B1
Assay: yeast two-hybrid (β-galactosidase activity)
Conditions: with partner chain of the complex shown; n = 3; parent: 100; read off a plot

First: chain 1 E26A
Second: chain 1 I28A
The percent of parent of the first is higher: 150% for the first, 140% for the second.

First: chain 1 M20A
Second: chain 1 N22A
The percent of parent of the first is higher: 160% for the first, 100% for the second.

First: chain 1 P25A
Second: chain 1 S19A
The percent of parent of the first is higher: 180% for the first, 89% for the second.

First: chain 1 V24A
Second: chain 1 V27A
The percent of parent of the first is lower: 100% for the first, 130% for the second.
